From the supplement of paper PMC9112550, “Optimization of the antimicrobial peptide Bac7 by deep mutational scanning” (BMC Biology, 2022)

Test system: Escherichia coli TOP10
Assay: shrunken log2 fold change of peptide-encoding DNA abundance (4.5 h post-induction vs induction); higher = less antimicrobial activity (less host growth inhibition)
Details: time post-induction: 4.5 h; library: site-saturation at positions 5, 18, 19, 20
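Also: peptides expressed intracellularly from a pBAD plasmid library in pooled LB shake-flask culture, induced with 0.3% L-arabinose, DNA abundance read by NGS, three biological replicates, DESeq2 with apeglm shrinkage.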

Sequence: RRIRIRPPRLPRPRPRPIMSPRP
- shrunken log2 fold change: 0.0262

Sequence: RRIRQRPPRLPRPRPRPDTDPRP
- shrunken log2 fold change: -0.00927

Sequence: RRIRKRPPRLPRPRPRPFQDPRP
- shrunken log2 fold change: 0.118

Sequence: RRIRERPPRLPRPRPRPSRGPRP
- shrunken log2 fold change: 0.49

Sequence: RRIRNRPPRLPRPRPRPQNIPRP
- shrunken log2 fold change: -0.263

Sequence: RRIRLRPPRLPRPRPRPQDWPRP
- shrunken log2 fold change: -0.104

Sequence: RRIRLRPPRLPRPRPRPVCTPRP
- shrunken log2 fold change: -0.0517

Sequence: RRIRRRPPRLPRPRPRPSNMPRP
- shrunken log2 fold change: -0.311

Sequence: RRIRKRPPRLPRPRPRPTSSPRP
- shrunken log2 fold change: 0.0586

Sequence: RRIRHRPPRLPRPRPRPLTLPRP
- shrunken log2 fold change: -0.193

Sequence: RRIRNRPPRLPRPRPRPYIQPRP
- shrunken log2 fold change: -0.244

Sequence: RRIRIRPPRLPRPRPRPNNNPRP
- shrunken log2 fold change: -0.982

Sequence: RRIRCRPPRLPRPRPRPNRNPRP
- shrunken log2 fold change: -0.562

Sequence: RRIRARPPRLPRPRPRPKWRPRP
- shrunken log2 fold change: 0.176

Sequence: RRIRPRPPRLPRPRPRPHCEPRP
- shrunken log2 fold change: 0.308

Sequence: RRIRVRPPRLPRPRPRPDLSPRP
- shrunken log2 fold change: -0.011

Sequence: RRIRGRPPRLPRPRPRPVDLPRP
- shrunken log2 fold change: 0.687

Sequence: RRIRCRPPRLPRPRPRPVTPPRP
- shrunken log2 fold change: 0.23

Sequence: RRIRERPPRLPRPRPRPTNPPRP
- shrunken log2 fold change: -0.182

Sequence: RRIRVRPPRLPRPRPRPHPHPRP
- shrunken log2 fold change: -0.161

Sequence: RRIRQRPPRLPRPRPRPRLDPRP
- shrunken log2 fold change: 0.205

Sequence: RRIRIRPPRLPRPRPRPWAVPRP
- shrunken log2 fold change: -0.203

Sequence: RRIRFRPPRLPRPRPRPYFFPRP
- shrunken log2 fold change: -0.544

Sequence: RRIRWRPPRLPRPRPRPITAPRP
- shrunken log2 fold change: 0.0334

Sequence: RRIRQRPPRLPRPRPRPPSRPRP
- shrunken log2 fold change: 0.138

Sequence: RRIRWRPPRLPRPRPRPWPKPRP
- shrunken log2 fold change: 0.322

Sequence: RRIRHRPPRLPRPRPRPGGCPRP
- shrunken log2 fold change: 0.165

Sequence: RRIRPRPPRLPRPRPRPFQLPRP
- shrunken log2 fold change: -0.0657

Sequence: RRIRFRPPRLPRPRPRPEIKPRP
- shrunken log2 fold change: 0.058

Sequence: RRIRTRPPRLPRPRPRPRGWPRP
- shrunken log2 fold change: 0.897

Sequence: RRIRERPPRLPRPRPRPFTEPRP
- shrunken log2 fold change: -0.184

Sequence: RRIRMRPPRLPRPRPRPALHPRP
- shrunken log2 fold change: 0.791

Sequence: RRIRGRPPRLPRPRPRPNRQPRP
- shrunken log2 fold change: 0.167

Sequence: RRIRMRPPRLPRPRPRPEHNPRP
- shrunken log2 fold change: 0.465

Sequence: RRIRDRPPRLPRPRPRPNSRPRP
- shrunken log2 fold change: -0.0447

Sequence: RRIRTRPPRLPRPRPRPSPIPRP
- shrunken log2 fold change: -0.733

Sequence: RRIRPRPPRLPRPRPRPDQKPRP
- shrunken log2 fold change: -0.0552

Sequence: RRIRMRPPRLPRPRPRPRYNPRP
- shrunken log2 fold change: -0.151

Sequence: RRIRFRPPRLPRPRPRPCDLPRP
- shrunken log2 fold change: -0.142

Sequence: RRIRVRPPRLPRPRPRPECRPRP
- shrunken log2 fold change: 0.238

Sequence: RRIRPRPPRLPRPRPRPRHEPRP
- shrunken log2 fold change: 0.0886

Sequence: RRIRHRPPRLPRPRPRPYFKPRP
- shrunken log2 fold change: -1.03

Sequence: RRIRARPPRLPRPRPRPVCQPRP
- shrunken log2 fold change: 0.58

Sequence: RRIRTRPPRLPRPRPRPGFAPRP
- shrunken log2 fold change: 0.33

Sequence: RRIRKRPPRLPRPRPRPHVIPRP
- shrunken log2 fold change: -0.257

Sequence: RRIRERPPRLPRPRPRPDASPRP
- shrunken log2 fold change: 0.0331

Sequence: RRIRQRPPRLPRPRPRPMCTPRP
- shrunken log2 fold change: -0.173

Sequence: RRIRYRPPRLPRPRPRPAQHPRP
- shrunken log2 fold change: -0.515

Sequence: RRIRGRPPRLPRPRPRPLSFPRP
- shrunken log2 fold change: 0.121

Sequence: RRIRMRPPRLPRPRPRPLGNPRP
- shrunken log2 fold change: -0.0024

Sequence: RRIRNRPPRLPRPRPRPTLVPRP
- shrunken log2 fold change: -0.0435

Sequence: RRIRYRPPRLPRPRPRPVGPPRP
- shrunken log2 fold change: -0.328

Sequence: RRIRSRPPRLPRPRPRPKRRPRP
- shrunken log2 fold change: 0.33

Sequence: RRIRKRPPRLPRPRPRPWLLPRP
- shrunken log2 fold change: 0.0409

Sequence: RRIRVRPPRLPRPRPRPPNGPRP
- shrunken log2 fold change: 0.0958

Sequence: RRIRMRPPRLPRPRPRPGQEPRP
- shrunken log2 fold change: 0.605

Sequence: RRIRRRPPRLPRPRPRPPPCPRP
- shrunken log2 fold change: 0.864

Sequence: RRIRFRPPRLPRPRPRPQKIPRP
- shrunken log2 fold change: -0.299

Sequence: RRIRWRPPRLPRPRPRPRWTPRP
- shrunken log2 fold change: 0.386

Sequence: RRIRGRPPRLPRPRPRPMQAPRP
- shrunken log2 fold change: 0.256

Sequence: RRIRCRPPRLPRPRPRPNQTPRP
- shrunken log2 fold change: -0.185

Sequence: RRIRARPPRLPRPRPRPPFMPRP
- shrunken log2 fold change: 0.376

Sequence: RRIRHRPPRLPRPRPRPNKKPRP
- shrunken log2 fold change: -0.0825

Sequence: RRIRRRPPRLPRPRPRPAMNPRP
- shrunken log2 fold change: 0.0496

Sequence: RRIRHRPPRLPRPRPRPSIIPRP
- shrunken log2 fold change: -0.237

Sequence: RRIRIRPPRLPRPRPRPAKQPRP
- shrunken log2 fold change: 0.0314

Sequence: RRIRMRPPRLPRPRPRPFKEPRP
- shrunken log2 fold change: -0.00865

Sequence: RRIRERPPRLPRPRPRPIHPPRP
- shrunken log2 fold change: -0.239

Sequence: RRIRYRPPRLPRPRPRPDFYPRP
- shrunken log2 fold change: -1.15

Sequence: RRIRTRPPRLPRPRPRPHQIPRP
- shrunken log2 fold change: 0.269

Sequence: RRIRSRPPRLPRPRPRPTRLPRP
- shrunken log2 fold change: 0.699

Sequence: RRIRERPPRLPRPRPRPFCCPRP
- shrunken log2 fold change: -0.0198

Sequence: RRIRDRPPRLPRPRPRPSRHPRP
- shrunken log2 fold change: 0.0369

Sequence: RRIRSRPPRLPRPRPRPWMMPRP
- shrunken log2 fold change: -0.165

Sequence: RRIRFRPPRLPRPRPRPLDVPRP
- shrunken log2 fold change: -0.153

Sequence: RRIRKRPPRLPRPRPRPQPPPRP
- shrunken log2 fold change: 0.672

Sequence: RRIRGRPPRLPRPRPRPPNDPRP
- shrunken log2 fold change: 0.76

Sequence: RRIRARPPRLPRPRPRPVEMPRP
- shrunken log2 fold change: 0.196

Sequence: RRIRTRPPRLPRPRPRPSQKPRP
- shrunken log2 fold change: 0.039

Sequence: RRIRCRPPRLPRPRPRPFLGPRP
- shrunken log2 fold change: -0.305

Sequence: RRIRVRPPRLPRPRPRPSTKPRP
- shrunken log2 fold change: -0.213

Sequence: RRIRTRPPRLPRPRPRPMQRPRP
- shrunken log2 fold change: -0.0122

Sequence: RRIRKRPPRLPRPRPRPWSNPRP
- shrunken log2 fold change: 0.202

Sequence: RRIRARPPRLPRPRPRPDMAPRP
- shrunken log2 fold change: 0.265

Sequence: RRIRIRPPRLPRPRPRPSMCPRP
- shrunken log2 fold change: -1.33

Sequence: RRIRWRPPRLPRPRPRPIREPRP
- shrunken log2 fold change: 0.411

Sequence: RRIRRRPPRLPRPRPRPCNDPRP
- shrunken log2 fold change: -0.0872

Sequence: RRIRTRPPRLPRPRPRPEIPPRP
- shrunken log2 fold change: -0.104

Sequence: RRIRTRPPRLPRPRPRPTGMPRP
- shrunken log2 fold change: 0.13

Sequence: RRIRERPPRLPRPRPRPTPQPRP
- shrunken log2 fold change: 0.246

Sequence: RRIRTRPPRLPRPRPRPINFPRP
- shrunken log2 fold change: -0.0833

Sequence: RRIRQRPPRLPRPRPRPTDRPRP
- shrunken log2 fold change: 0.0938

Sequence: RRIRVRPPRLPRPRPRPLCVPRP
- shrunken log2 fold change: 1.22

Sequence: RRIRFRPPRLPRPRPRPPKEPRP
- shrunken log2 fold change: 0.0652

Sequence: RRIRFRPPRLPRPRPRPFFVPRP
- shrunken log2 fold change: -0.161

Sequence: RRIRVRPPRLPRPRPRPKGTPRP
- shrunken log2 fold change: -0.171

Sequence: RRIRQRPPRLPRPRPRPYPFPRP
- shrunken log2 fold change: -0.035

Sequence: RRIRWRPPRLPRPRPRPNDMPRP
- shrunken log2 fold change: 0.199

Sequence: RRIRQRPPRLPRPRPRPRMCPRP
- shrunken log2 fold change: 0.0318

Sequence: RRIRWRPPRLPRPRPRPDWHPRP
- shrunken log2 fold change: -0.0337

Sequence: RRIRNRPPRLPRPRPRPPTYPRP
- shrunken log2 fold change: -0.217

Sequence: RRIRRRPPRLPRPRPRPDAAPRP
- shrunken log2 fold change: 1.44

Sequence: RRIRSRPPRLPRPRPRPGGMPRP
- shrunken log2 fold change: 0.446

Sequence: RRIRERPPRLPRPRPRPNEPPRP
- shrunken log2 fold change: -0.129

Sequence: RRIRCRPPRLPRPRPRPEESPRP
- shrunken log2 fold change: -0.00538

Sequence: RRIRWRPPRLPRPRPRPCGVPRP
- shrunken log2 fold change: 0.0164

Sequence: RRIRARPPRLPRPRPRPVEHPRP
- shrunken log2 fold change: 0.068

Sequence: RRIRPRPPRLPRPRPRPDAKPRP
- shrunken log2 fold change: 0.201

Sequence: RRIRDRPPRLPRPRPRPYNVPRP
- shrunken log2 fold change: -0.0265
